{
  "source": "patent US12448434B2",
  "about": "“Antibodies specifically recognizing Pseudomonas PcrV and uses thereof” (priority 2019, dated 2025)",
  "molecules": {"B1": {"name": "6D10: optimized anti-PcrV mAb clone; VH SEQ ID NO: 61, VL SEQ ID NO: 65 (antibody, V domains shown)", "VH": "EVQLLESGGGLVQPGGSLRLSCTASGFTFSDYPMSWVRQAPGKGLDWVSGISESGGSTNYADSVKGRFSTSRDNSKSTLYLDMNSLRAEDTAIYYCAKGRFSTDSSHFYRAVYGMDVWGQGTAVTVSS", "VL": "DIQLTQSPSSLSASVGDRVTITCRASQGISSYLAWYQQKPGKAPKLLIYAASTLQSGVPSRFSGSGSGTDFTLTISSLQPEDFATYYCQQLSSYPLSFGGGTKVEIK"}, "B2": {"name": "13-42: lead parental full-length human IgG1 anti-PcrV antibody; VH SEQ ID NO: 48, VL SEQ ID NO: 65 (antibody, V domains shown)", "VH": "B1 VH with Y60D, S102C, D104N, H107C, Y109F", "VL": "B1 VL"}, "B3": {"name": "2D3: optimized anti-PcrV mAb clone; VH SEQ ID NO: 53, VL SEQ ID NO: 65 (antibody, V domains shown)", "VH": "B1 VH with Y32N, P33H, N59Y, T103Y, S105T, S106R, Y109F", "VL": "B1 VL"}, "B4": {"name": "9B12: optimized anti-PcrV mAb clone; VH SEQ ID NO: 64, VL SEQ ID NO: 67 (antibody, V domains shown)", "VH": "B1 VH with Y32N, G50V, Y60D, D104N, S106D", "VL": "B1 VL with S97T"}, "B5": {"name": "7B1-1F5: optimized anti-PcrV mAb clone; VH SEQ ID NO: 62, VL SEQ ID NO: 70 (antibody, V domains shown)", "VH": "B1 VH with Y32N, P33Y, G50V, D104L, Y109F", "VL": "B1 VL with L11F, V15T, L46V, D70E, S92K, S97T, V104L"}},
  "key": {"[1]": {"tested_on": "PcrV", "test": "BIACORE binding to PcrV", "parameters": "species or system Pseudomonas aeruginosa", "conditions": "data not shown", "protocol": "The association constant (ka), dissociation constant (kd) and the equilibrium dissociation constant (kD) for binding of optimized anti-PcrV mAb clones 7B1, 7C1, 8C1, 6D10 and reference antibody V2L2-MD to PcrV were tested by BIACORE (GE company)."}, "[2]": {"tested_on": "BV particles", "test": "Cross-reactivity to BV particles by ELISA", "format": "binding", "conditions": "FIG. 3", "protocol": "Cross-reactivity to BV particles: Using ELISA, optimized antibodies 7C1, 7B1, 8C1, 6D10, and reference antibodies V2L2-MD and Mab166 were tested for cross-reactivity to BV particles according to the method described previously (See Hötzel I, et al, 2012, mAbs 4:6, 753-760)."}, "[3]": {"tested_on": "PcrV-negative A549 cells", "test": "Cross-reactivity to PcrV-negative A549 cells by FACS", "format": "cell-based, human", "conditions": "FIGS. 4A-4E, compared with no antibody and V2L2-MD", "protocol": "Cross-reactivity to A549 cells: Using FACS, parental antibody 13-42, optimized antibodies 7C1, 7B1, 8C1, 6D10 as well as V2L2-MD were tested for cross-reactivity to PcrV-negative A549 cells."}, "[4]": {"tested_on": "PcrV mutants (with mutations at position 225)", "test": "Binding to PcrV mutants with mutations at position 225", "parameters": "species or system Pseudomonas aeruginosa", "conditions": "data not shown", "protocol": "To further illustrate the optimized antibodies could broadly neutralize P. aeruginosa strains, the abilities of these antibodies to bind various forms of PcrV mutants were tested. Briefly, 100 PcrV sequences were randomly selected from Genebank database. In contrast to the wild type sequence as shown in SEQ ID No: 71, 13% of the selected sequences contained R, G, or K at position 225 (as compared of S in the wild type sequence SEQ No: 71), which was the main mutation around the epitope of 7B1.\nThese findings further illustrate that the optimized anti-PcrV antibodies could neutralize a broad spectrum of P. aeruginosa strains, which might express various forms of PcrV mutants."}, "[5]": {"tested_on": "P. aeruginosa (PA103 strain)", "test": "Prophylactic mouse acute pneumonia model, organ burden", "format": "in vivo, BALB/c mice", "conditions": "10 mg/kg i.p. 24 hr before infection, 0.5*LD90", "protocol": "In a prophylactic model, 7-8 week old BALB/c mice (Vital River Laboratory) were administered with antibodies or PBS intraperitoneally (i.p.) 24 hr before infection, at 10 mg/kg mouse weight. To induce acute pneumonia, the BALB/c mice were intranasally inoculated with P. aeruginosa (PA103 strain) suspended in a 40 μl inoculum at half the lethal dose (0.5*LD90; 3×10^5 CFU). 24 hours post-infection, mice were euthanized, where the lungs, spleens and kidneys were extracted, homogenized and diluted before plating on agar to measure the viable bacteria units (in CFU), which represented the P. aeruginosa burden in the respective organ sample."}, "[6]": {"tested_on": "P. aeruginosa (PA103 strain)", "test": "Therapeutic mouse acute pneumonia model, survival", "format": "in vivo, BALB/c mice", "conditions": "i.v. 1 h post-infection, 1 mg/kg or 10 mg/kg; 1*LD90; 6 days", "protocol": "In a therapeutic model, to induce acute pneumonia, 7-8 week old BALB/c mice (Vital River Laboratory) were intranasally inoculated with P. aeruginosa (PA103 strain) suspended in a 40 μl inoculum at a lethal dose (1*LD90=8×10^5 CFU). Antibodies or PBS were administered intravenously (i.v.) at 1 h post-infection, at a dose of 1 mg/kg or 10 mg/kg mouse weight. Mouse survival was recorded for up to 6 days post-infection."}, "[7]": {"conditions": "rat, in vivo, iv", "protocol": "Pharmacokinetic profile in rat: 40 healthy adult rats (about 0.2 kg by weight) were equally into two groups, where each group registered similar average weight. One group was injected intravenously with 30 mg/kg of V2L2-MD, 7C1, 7B1, 8C1 or 6D10 and the other group was injected intravenously with 3 mg/kg of V2L2-MD, 7C1, 7B1, 8C1 or 6D10. Blood was collected at […], and subsequently at 0 hour, 0.5 hour, 2 hour, 8 hour, 1 day, 3 days, 7 days, 11 days, 17 days, 23 days, 31 days, 41 days and 52 days after injection. After centrifugation, the plasma was used for analyzing antibody concentration using ELISA. For the ELISA experiment, synthetic PcrV was used to coat the wells of a 96-well plate. On the following day, after washing with PBST, blocking with 200 μL PBS-milk for an hour, and another wash with PBST, the plasma was added and incubated for an hour at 37° C. The plate was washed with 0.1% TBST for 6 times before 100 μL of Goat-anti-human Fc antibody-AP (1:3000 in PBS) was added to each well and incubated for an hour. After washing with 0.1% TBST for 6 times, 50 μL of pNPP was added to each well and color was developed for 10-20 minutes at 37° C. The signals were read by a microplate reader at 410 nm."}, "[8]": {"tested_on": "Strain 57/66(O6) P. aeruginosa", "test": "RBC lysis inhibition assay, strain 57/66(O6)", "format": "cell-based, Pseudomonas aeruginosa", "conditions": "Table 7", "protocol": "Monoclonal scFv antibodies were selected and assessed for biological activity by RBC lysis assay. Briefly, red blood cells (RBCs) were prepared from fresh whole human or rabbit blood by centrifugation, supplemented with EDTA and rinsed with multiple phosphate-buffered saline (PBS) washes. Washed RBCs (2.5% [vol/vol] final) in Dulbecco's modified Eagle's medium (DMEM) plus 10% fetal bovine serum (FBS) (Gibco) and purified anti-PcrV antibodies diluted in PBS were combined into wells of a round-bottom 96-well plate. Strain 57/66(O6) P. aeruginosa was grown to mid-log phase in 2× YT medium (Oxford), harvested by centrifugation, and resuspended in DMEM-fetal bovine serum (FBS) at an optical density at 600 nm (OD600) of 0.15. Ten microliters of bacterial suspension was added to the RBC-antibody mixture, mixed by agitation, and incubated for 3 hours at 37° C. and 5% CO2. The plates were briefly centrifuged (1000 rpm, 1 min) to pellet the intact RBCs, the supernatants transferred to a flat-bottom 96-well plate, and the OD405 was measured to detect any lysis, from which the relative amount of lysis inhibition was calculated and plotted. IC50 values for the antibodies were also determined.\nThe ability of optimized anti-PcrV mAb clones 7B1, 7C1, 8C1, 6D10, 6A10, 5B3, 3B12, 4A10, 2B1, 7B2, 3H10, 3G3, 9B12, 3A9, 2D3, 7B1-1F5, to inhibit red blood cell lysis was compared to the parental 13-42 mAb and the reference antibody V2L2-MD. RBC lysis inhibition assay was performed as described in Example 1.\nThe optimized anti-PcrV mAb clones 7C1, 8C1, and 7B1 were further analyzed for their abilities to inhibit red blood cell lysis by various strains of P. aeruginosa, namely strains O1-52/66, O16-177/81, and O6-57/66, as compared to the parental 13-42 mAb and the reference antibody V2L2-MD. RBC lysis inhibition assay was performed as described in Example 1."}},
  "note": "Changes are numbered by the printed parent chain.",
  "data": [
    {"molecule": "B1", "values": [
      {"measurement": "association and dissociation kinetics in PcrV binding (ka and kd values)", "setting": "[1]", "result": "comparable association and dissociation kinetics"},
      {"measurement": "non-specific binding to BV particles", "setting": "[2]", "result": "low levels of non-specific binding"},
      {"measurement": "binding to PcrV-negative A549 cells", "setting": "[3]", "result": "similarly low levels of A549 binding"},
      {"measurement": "binding to PcrV mutants with R, G or K at position 225", "setting": "[4]", "result": "strongly bind these mutants"},
      {"measurement": "reduction of organ burden in the lung, spleen and kidney relative to HIV-10E8", "setting": "[5]; FIG. 8B", "result": "higher efficacy in reducing organ burden"},
      {"measurement": "reduction of organ burden in the lung, spleen and kidney relative to V2L2-MD", "setting": "[5]; FIG. 8B", "result": "comparable efficacy in reducing organ burden"},
      {"measurement": "survival improvement relative to V2L2-MD", "setting": "[6]", "result": "survival improvement comparable to that of V2L2-MD"},
      {"measurement": "half-lives relative to reference antibody V2L2-MD", "setting": "[7]", "result": "comparable to or longer than that of reference antibody V2L2-MD"}
    ]},
    {"molecule": "B2", "values": [
      {"measurement": "binding to PcrV-negative A549 cells", "setting": "[3]", "result": "similarly low levels of A549 binding"},
      {"measurement": "reduction of organ burden in the lung relative to V2L2-MD", "setting": "[5]; 24 hours post-infection, FIG. 8A", "result": "better efficacy in reducing organ burden in the lung"}
    ]},
    {"molecule": "B3", "values": [
      {"measurement": "RBC lysis assay IC50", "setting": "[8]", "result": 0.05, "unit": "µg/mL"}
    ]},
    {"molecule": "B4", "values": [
      {"measurement": "RBC lysis assay IC50", "setting": "[8]", "result": 0.07, "unit": "µg/mL"}
    ]},
    {"molecule": "B5", "values": [
      {"measurement": "RBC lysis assay IC50", "setting": "[8]", "result": 0.19, "unit": "µg/mL"}
    ]}
  ]
}
